Results published in the nanobody polyreactivity screen of Harvey et al. (2022).

Assay: yeast display, Sf9 membrane polyspecificity reagent, FACS + sequencing; frameworks hold sequencing errors
Procedure, shortened: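 Nanobodies from a synthetic yeast display library (Saccharomyces cerevisiae BJ5465), induced 36–48 hours with galactose, were stained 1 hour at 4 °C with 10% biotinylated, detergent-solubilized Sf9 membrane reagent, enriched on streptavidin microbeads, then FACS-sorted. Anti-HA (expression) and streptavidin (reagent binding) fluorescence set low and high (top ~1%) gates. Polyreactivity labels come from the gate of origin. Genes were colony-PCR amplified, MiSeq 2 × 250 sequenced and filtered by CDR length.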

Row | Sequence | polyreactivity (PSR sort gate)
1 | QVKLVESGGGLVKAGGRLRLSCAASGRTFWYNAMGRYRPAPGKESELVAAINFSGGITYYADSVKGRFTISRDNAKNTVYLQMNSLKPEDTAVYYCNAVSRGRDAAGNYWGQGTQVTVSS | high polyreactivity
2 | QDQHVESGVGLVQEGGSLRLSCAASGIIIDEYAMGLYRQAPGKERELVAAISSRGTNTYYADSVKGRFTISRDNAKNTVYLQMNSLKPEDTAVYYCAARRPPVTRHFGYWGQGTQVTVSS | high polyreactivity
3 | QVQLVESGGGLVQAGGSLRLSCAASGIKLYYYAMGWYRQAPGKETEFVAAIAGSGGSTRYADSVKGRFTISRDNAKKTVYLQMNSLKPEDTAVYYFAARSRYGYITFDYWGQGTQVTVSS | high polyreactivity
4 | QVQLVESGGGLDQAGGSLRLSCAASGSTYSYYAMGWYRQAPGKERELVAAISRSGGSTYYADSVKGRFTISRDNAKNTVYLQMNCMKPEDTAVYYCAARGQYRYSFGDYSWGQGTQVTVSS | high polyreactivity
5 | QVQLVESGGGLVQAGGSLRLSCAASGSTFHRYAMGWYRQAPGKERELVAAISVRTGSTYYADSVKGRFTISRDNAKNTVYLQMNSLKPEDTAVYSCAVGKQINGKIYRYDYWGQGTQVTVSS | high polyreactivity
6 | QVQLVESGGVLVQAGGSLRLSCAASGFTFAKNAMGWYRQAPGKERELVATISRSGGSTYYADSVKGRFTISRDKAKNTVYLQMNSLKPEDTAVYYCNKKYKYLYDYWGQGTQVTVSS | high polyreactivity
7 | QVQLVESGGGLVQAGGSLRLSCAATGFIFFYYAMGWYRQAPGKERELFAVIDRSGGTTYYADSVKGRFTISRDNAKNTVYLQMNSLKPEDTAVYYCNADDFTYPSGWGFIYDYWGQGTQVTVSS | low polyreactivity
8 | QVQLVESGGGLVQAGGSLRLSCAASGIIFYGNAMGWYRQAPGKERELVAAISWSGSSTYYADSVKGRFTISRDNAKNTVYLQMNSLKPEDTAVYYCNKATSSVRYLKYYYWGQGTQVTVSS | high polyreactivity
9 | QVQLVESGGGLVQAGASLRLSCAASGNILRGYAMRWYRQAPGKERELVAAINRGGGSTYYADSVKVRFTISRDNAKNTVYLQMNSLKPEDTAVYYCAARYPHRGYTFDYLGQGTQVTVSS | low polyreactivity
10 | QVQLVESGGGLVQAGGSLRLSCAASGRIFNRYAMGWYRQAPGKEREFVAAISVRGGTTYYADSVKGRFTISRDNAKNTVYLQMNSLKPEDTAVYYCAARKISKYDYWGQGTQVTVSS | high polyreactivity
11 | QVQLVESGGGLVQAGGSLRLSCAASGGIFWYYAMGWYRQAPGNERELVATISTGGSTKYADSVKGRFTISRDNAKNTVYLQMNSLNPDDTAVYYCNKVFPNLYIYVVRGLIEMDYWGQGTQVTVSS | low polyreactivity
12 | QVQLVESGGGLVQAGGSLRLSCAASGIIFDNYAMGWYRQAPGKERELVAAISPGGSTYYADSVKGRFTISRDNAKNTVYLQMNSLKPEDTAVYYCNARKYTWYSSRFIRFDYWGQGTQVTVSS | high polyreactivity
13 | QVQLVESGGGLVQAGGSLRLSCAASGSTFSGYAMGWYRQAPGKERELVAAISSSGGGTYYADSVKGRFTISRDNAKNTDYLQMNSLKPEDTAVYYCAARVGYRYRKGRYDYWGKGTQVTVSS | high polyreactivity
14 | QVQLVESGGGLVQAGGSLRLSCAASGYTFVGYAMGWYRQAPGKERELVASISTGDSTYYADSVKGRFTISRDNAKNTVYLQMNSLKPEDTAVYYCAADSWYFRGMDYWGQGTQVTVSS | low polyreactivity
15 | QVQLVESGGGLVQAGGSLRLICAASGSTFYRNVMGWYRQAPGKERELVAAISSGGSTYYADSVKGRFTISRDNAKNTVYLQMNSLKPEDTAVYYCAARKRYSYDYWGQGTQVTVSS | low polyreactivity
16 | QVQLVESGGGLVQAGGSLRLSCAASGYTFFHNAMGWYRQAPGKERELVATISRGGGSTYYADSVKGRFTISRDNAKNTVYLQMNSLKPEDTAVYYCNKGVITYRRGYWGQGTQVTVSS | low polyreactivity
17 | QVQLQESGGGLVKAGGDLRLSCAASGNIFRDYIMGWYRQAPGKEREFVAGIDRGANTNYADSVKGRFTISRDNAKNTVYLQMNSLKPVDTAVYYCGVHTAIVPDFIYWGQGTQVTVSS | low polyreactivity
18 | QVQLVESGGGLVQAGGILRLSCAASGSTLGKNAMGWYRQAPGKERELVAAISYSGGSTYYADSVKGRFTISRDNAKNTVYLQMNSLKPEDTAVYYCAAQRRYHYWGQGTQVTVSS | low polyreactivity
19 | QVQLVESGGGLVQAGGSLRLSCAASGSIFTYYTMGWYRQAPGKERELVAAITVSGGRTFYADSVKGRFTISRDNAKNTVYLQMNSLKPEDTAVYYCAVKQVTLSPQYDYWGQGTQVTVSS | low polyreactivity
20 | QVQLVESGLGLVQAGGSLRLSCAASGSTFYLYTMGWYRQAPGKERELVAAITYSGGRTYYADSVKGRFTISRDNAKNTVYLQMNSLKPEDTAVYYCAARRLPRPWTSTSDYWGQGTQVTVSS | high polyreactivity
21 | QVQLVESGGGLVQAGGSLRLSCDASGSTFTRYVMGGYRQPPGKERELVAVISSSAGSTYYADSVKGRFTISRDNAKNTVYLQMNSLKPEDTAVYYCAARYSAKHYGYGYWGQGTQVTVSS | high polyreactivity
22 | QVQLVESGGGLVQAGGSLRLSCAASGFIFYRYAMGCYRQAPGTEREFVAAISFRDGITYADSVKGRFTISRDNAKNTVYLQMNTLKPEDTAVYYCNAALSQLRRGGLAMDYWGQGTQVTVSS | low polyreactivity

Row | Sequence | polyreactivity (PSR sort gate)
23 | QVQLVESGGGLVQAGGSLRLSCAASGLTFVRYTMGWYRQAPGKERELVADISSVGSTYYADSVKGRFTISRDNAKNTVYLQMNSLKPQDTAVYYCNTSYIIWYDSWGQGTQVTVSS | low polyreactivity
24 | QVQLVESGGGLVQAGGSLRLSCAPSGRTIGRNAMGWSRQAPGKERELVAAISASGSRTYYAESVKGRFTISRDNAMNTVYLQMNSLKPVDTAVYYCNAVYRTLYYRFYYWGQGTQVTVSS | high polyreactivity
25 | QVQLVESGGGLVQAGGSLRLSCAASGRIFVGYALGWYRQAPGKERELVAAINRSGSSTYYADSVKGRFTISRDNAKNTDYLQMNSLKPEDTAVYYCNARSGNRYGPRYDYWGQGTQVTVSS | high polyreactivity
26 | QVQLVESGGGLVQAGGSLRISCAASGFIFPFYAMGWYRQAPVKERELVATITSGGSTNYADSVKGRFTISRDNAKNTVYLQMNSQKPEDTAVYYCAAVIVPYGPSTFRVVGLDYWGQGTQVTVSS | low polyreactivity
27 | QVQLVESGGGLVQAGGSLRLSCAASGSIFYRYAMGWYRPAPGKERELVAAISSTGSTYYADSVKGRFTISRDNAKNTVYLQMNSLKPEDTAVYYCAARQGYRSYRRYDYWGQGTQVTVSS | high polyreactivity
28 | QVQLVESGGGLVQAGGSLRLSCAASGSIFHYNAMGWYRQAPGKERELVARISVNGGRTYYADSVKGRFTISRDNAKNTVYLQMNSLKPEDTAVYYCAVEGVWRSFFYGYDSWGQGTQVTVSS | low polyreactivity
29 | QVQLVESGGGLVQAGGSLRLSCAASGSTFNYNAMGWYRQAPGKERELVADISWRGGITYYADSVKGRFTISRDNAKNTVYLQMNSLKPEDTAVYYCNADAESFDDGYWGQGTQVTVSS | low polyreactivity
30 | QVQLVESGGGLVQAGGSLRLSCAASGSTFQAYVMGWDRQAPGKERELVAAISRSGGSTYYADSVKGRFTISRDNAKNTVYLQLHSLKPEDTAVYYCAVDASRYGSTGHYGFYYWGQGTQVTVSS | low polyreactivity
31 | QVQLVESAGGLVQAGGSLRLSCAHSGITYTRYAMGWYRHAPGKESELVAAISSGGRTNYADSVKGRFTISRDNAKNTVYLQMNTLKPEDTAVYYCNAAGHRWYPRYHYWGQGTQVTVSS | high polyreactivity
32 | QVQLVESGGGLVQAGGSLRLSCAASGSIFVYYAMGWYRQAPGKERELVASISRGGTSTYYADSVKGRFTISRDNAKNTVYLQMNSLKPEDTAVYYCAAQPYRTGTYDYWGQGTQVTVSS | low polyreactivity
33 | QVQLVESGGGLVQAGGSLRLSCAASGITFYRNAMGWDRQAPGKERELVAAISSRGGRTYYADSVKGRFTISRDNAKNTVYVQMNSLKPEDTAVYYCAKGGKVGSTLEYDYWGQGTQVTVST | high polyreactivity
34 | QVQLVESGGGVVQAGGRLRLSCAASGFILGYNDMGWYRPAPGKERELVAAISSSGGSTYYADSVKGRFTISRDNAKNTVYLQMNSLKPEDTAVYYCGLPYQTSYGEYDYWGQGTQVTVSS | low polyreactivity
35 | QVQLVESGGCLVQAGGSLRLSSAASGRTFRYYAMGSYRQAPGKERELVAAITVTVTSTFYADSVKGRFTISRDNAKNTVYLQMNSLKPEDTAVYYCAVPGATSYFPDDSWGQGTQVTVSS | low polyreactivity
36 | QVQLVESGGGLVQAGGSLSLSCAASGSTFGLNASGWYRQAPGKEREFVAAITSGGTYYADSVKGRFTISRDNAKYTVYLHMYSLKPEDTSVYYCAADGTWSIYGGMYYWGQGTQVTVSS | low polyreactivity
37 | QVQLVESGGGLVQAGGSLRLSCAASGSTFTDYDMGWYRPAPGKERELVAAISSGGSTYYADSVKGRFTISRDNAKNTVYLQMNSLKPEDTAVYYCAAVLGVWGGVGSEGDYWGQGTQVTVSS | low polyreactivity
38 | QVQLVESRGGLVQAGGSLRLSCAASGSTFRIKAMGWYRQAPGNERELFAAIRASGTSTYYADSVKGRFTISRDNGQNTVYLLMIRLKPEDTAVDYCAASAQQPVLGLSYYYWGQGTQVTVSS | high polyreactivity
39 | QVQLVESGGGLVQAGGSLRLSCAASGRIFDGYAMGWNRKAPGKERELVPAISGGGNTKYADSEKGRFTISRDNAKNTVYLQMNSLKPEDTAVYYCAARGYYYGYRFDSWGQGTQVTVSS | high polyreactivity
40 | QVQLVESGGGLVQAGGSLRLICAASGFTYRGYAMGWYRQAPGKERELVAAISSSVGSTYYADAVKGRFTISRDNAKNTVYLQKISLKPEDTAVYYCAARKGYVIRYNYWGQGTQVTVSS | high polyreactivity
41 | QVQLVESVGGLVQAGGSLRLSCAASGRTFYHYAMGWYRQAPGKERELVAAITWSGGSTYYADSVKGRFTISRDNAKNTVYLQMNSLKPEDTAVYYCAAAYRPWRGGYYPVGYYYWGQGTQVTVSS | high polyreactivity
42 | QVQLVESGGVLVQAGGSLRLSCAASGRTFGWYAMGWYRQAPGKERELVAAITWRGGSTYYADSVKGRFTISRDNAKNTVYLQMNILKPEDTAVYYCAAAAEKRSYYWGQGTQVTVSS | high polyreactivity
43 | QVQLVESCGGLVQAGGSLRLRCAASGSIFSGYVMVWYRPAPGKERELVAAISGSGGSTYYADSVKGRFTISRYNAKNTVYLQMNSLKPEDTAVYYCNVDRSPTHIVGYGYWGQGSQVTVSS | low polyreactivity
